Laboratory results reported in the DeepSol protein solubility set.

Assay: soluble on expression in E. coli; label from the status in PepcDB or PDB records

Sequence | soluble on expression in E. coli
EEIDCNDKDLFKAVDAALKKYNSQNQSNNQFVLYRITEATKTVGSDTFYSFKYEIKEGDCPVQSGKTWQDCEYKDAAKAATGECTATVGKRSSTKFSVATQTCQITPAEGPVVTAQYDCLGCVHPISTQSPDLEPILRHGIQYFNNNTQHSSLFMLNEVKRAQRQVVAGLNFRMTYSIVQTNCSKENFLFLTPDCKSLWNGDTGECTDNAYIDIQLRIASFSQNCDIYPGKDFVQPPTKICVGCPRDIPTNSPELEETLTHTITKLNAENNATFYFKIDNVKKARVQVVAGKKYFIDFVARETTCSKESNEELTESCETKKLGQSLDCNAEVYVVPWEKKIYPTVNCQPLGMISLMKRPPGFSPFRSSRIGEIKEETTSHLRSCEYKGRPPKAGAEPASEREVS | not soluble
EEKLVKIAGFGGQGVLSMGLTLAEAACRDQKYVSWYPSYGPEQRGGTSNCSVIISGHEIGSPVVYSPGVLIALNKPSLENFAKDVKTGGTIIYDENIGDFEIPNGVTAIKVPASKIATEMGVSRAANTVMLGVLSALGYTGLSESVFVGAIEQTFSKKPKLIPINVEILNAGISWAKE | not soluble
EIILNASAMFNHSNAKLALSIDKKLRKVIVTPDMHRVHHSVMVKETHSNFGFFLSVWDRWFGTYRAQPALGHNDVVIGVPEIREASEQRLDKLLTQPFRYREGKGKNVD | not soluble
EKIAHMAVSRGNGARLLVDGEATFAALFAALDAARHYVLIQFYIVRDDDLGLELRDRLIAAAQRGVKVRFLTDAIGSYGLSDNYIEDLRAAGIDIANPRKQRGPNTRFQVNYRNHRKTVVVDGQTGFIGGHNVGVEYLGQDPVMGRWRDTHVQITGPSVLQLQLVFAEDWHWARGEDLLDLLSWETRLDPQDADALIVATGPGDRTESGAMM | not soluble
EKMTRDEIEYMLTNSEETLEAEEIEMLQGIFSLDEMMAREVMVPRTDAFMIDINNDAQSNIEGILSQNFSRVPVFDDDKDRVVGVLHTKRLLEAGFKTGFDTIDLRKILQEPLFVPETIFVDDLLKALRNTQNQMAILLDEYGGVAGLVTLEDLLEEIVGEID | soluble
ELGRLEDPAFTIKDAMIVATYPGATSKEVEEELTYPLEKEIRKLPYIDRITSTSSNGMSQIMVSMKMDYGPDELPQIWDEMRRKINDLQPTLPQGVQSLQIIDDFGDVYGVMLMLTGDDYDYVELKRYADHLRREIELVDGVGKVDIAGDQQEMLFVEISLDRLASLNLDMNVVSGLLNQQNNVVSAGEVMVNGESLVIRPSGTLNTVQALENLIIHGRDTGNLIRLKDVATITRGIQEKPGNMILFNGKKAINIGISFASGVNVVEVGERLNAELSSLESIKPAGLDMSYFYNQAQEVDDSVK | soluble
EMVKLQSVITGSMQTGRSRARIEQAVVALLTYVEEETDAFQILVRDMKAGQDHSYSTLLNDAVEQVSHILGQAFERSGLNPKNATLYAQALVGMVSMTAQWWLDRRKEPNAATKEQVAAHIVNLCWNGLAGMEANPQLSNIDSPPETLGAH | not soluble
ENYLNVKKIENEKNLQISEMSLQYDYYMKQSNDMENIRKISHDIKNHLEALRGNVDYQQKQEYIDGIESKLDIYQSYYKTGNAFLNNLLHAKRLEALEKKIEFKVFADFTPFKRVKNEDLCVIVSNTIDNALRECQLMKADNPKIECLVQLKARKIKGFLSIICENSLRESQAEALRGNLVMETSKEDKKNHGFGVKNIKRVVREYGGEVSFNVVDDMFSVSILIPIEV | not soluble
EPPADGGQIKGVGSGRCLDVPDASTSDGTQLQLWDCHSGTNQQWAATDAGELRVYGDKCLDAAGTSNGSKVQIYSCWGGDNQKWRLNSDGSVVGVQSGLCLDAVGNGTANGTLIQLYTCSNGSNQRWTRT | soluble
EPRRPRAGPEELGKILQGVVVVLSGFQNPFRSELRDKALELGAKYRPDWTRDSTHLICAFANTPKYSQVLGLGGRIVRKEWVLDCHRMRRRLPSQRYLMAGPGSSSEEDEASHSGG | soluble
EQELSYFAVFRRVYVQRDEVRQIASIVQRGERDHTFRVGSLIFHTIGQLLPQQMQAFHSPKALFPVGYEASRLYWSTRYANRRCRYLCSIEEKDGRPVFVIRIVEQGHEDLVLSDISPKGVWDKILEPVACVRKKSEMLQLFPAYLKGEDLFGLTVSAVARIAE | not soluble
EQGREPSWGFTEKSRTRDIPETLVPLITVTPSTELYRITGWGALEGHKVFYHETYINPEVAPGFIEQLENHSFSAVWEKCYQKETVVKKLIFKPVRMPGDISKYLGGSAGMPAILIEKHRADQQGNIVQIDIEYWRFEAVDLIINL | not soluble
EQLPVLQTVPFAGSAEPVSLTRESVERSVGEANMQEQRKRVHAMLRDYELQLRINSDASQQDAHLTPDSE | not soluble
ESKLEGKAAQDIKDEEPGDLGRPKPECEGYDPNALYCICRQPHNNRFMICCDRCEEWFHGDCVGISEARGRLLERNGEDYICPNCTILQVQDETHSETADQQEAKWRPGDADGTDCTSIGTIEQKSSEDQGIKGRIEKAANPSGKKKLKIFQPGPGPVPTQLPVLWQVLEIAVSRSISAFTLLHCISCKVIEAPGASKCIGPGCCHVAQPDSVYCSNDCILKHAAATMKFLSSGKEQKPKPKEKMKMKPEKPSLPKCGAQAGIKISSVHKRPAPEKKETTVKKAVVVPARSEALGKEAACESSTPSWASDHNYNAVKPEKTAAPSPSLLYKSTKEDRRSEEKAAATAASKKTAPPGSTVGKQPAPRNLVPKKSSFANVAAATPAIKKPPSGFKGTIPKRPWLSATPSSGASAARQAGPAPAAATAASKKFPGSAALVGAVRKPVVPSVPMASPAPGRLGAMSAAPSQPNSQIRQNIRRSLKEILWKRVNDSDDLIMTENEVGKIALHIEKEMFNLFQVTDNRYKSKYRSIMFNLKDPKNQGLFHRVLREEISLAKLVRLKPEELVSKELSTWKERPARSVMESRTKLHNESKKTAPRQEAIPDLEDSPPVSDSEEQQESARAVPEKSTAPLLDVFSSMLKDTTSQHRAHLFDLNCKICTGQVPSAEDEPAPKKQKLSASVKKEDLKSKHDSSAPDPAPDSADEVMPEAVPEVASEPGLESASHPNVDRTYFPGPPGDGHPEPSPLEDLSPCPASCGSGVVTTVTVSGRDPRTAPSSSCTAVASAASRPDSTHMVEARQDVPKPVLTSVMVPKSILAKPSSSPDPRYLSVPPSPNISTSESRSPPEGDTTLFLSRLSTIWKGFINMQSVAKFVTKAYPVSGCFDYLSEDLPDTIHIGGRIAPKTVWDYVGKLKSSVSKELCLIRFHPATEEEEVAYISLYSYFSSRGRFGVVANNNRHVKDLYLIPLSAQDPVPSKLLPFEGPGKRRLSGWR | soluble
ESKSPIIQNVLSYITEHFSEGMSLKTLGNDFHINAVYLGQLFQKEMGEHFTDYLNRYRVNYAKEELLQTKDNLTIIAGKSGYTDMAYFYRQFKKHTGETPNRYRKIHQ | soluble
ESLSGEDAFPYRHQIVEIPPIELIVIEHRLHQLTCGQCGTNTRAKLPDDVNPSEYGVRVVAMVALLSGVYRNSQRMVQSALADLFGISMSLGTVNTLRIEANNAVANCVDEAKLYVQHSNVVGADETGFNQGNIDGGNPKQRQAWLWVGVTPLVTFFEVALTRCTSAVKNLLGENFAGILTSDRHGAYNWVDI | not soluble
ESNDSGIVVYNAQHENLVKSWVDGFTKDTGIKVTLRNGGDSELGNQLVQEGSASPADVFLTENSPAMVLVDNAKLFAPLDAVTQAQVAQEYRPEHGRWTGIAARSTVFVYNPEKISEAELPKSIMDLAKPEWKGRWAASPSGADFQAIVSAMLELKGEKATLEWLKAMKTNFTAYKGNSTVMKAVNAGQIDGGVIYHYYRFVDQAKTGENSGKTQLHYFKHQDPGAFVSISGGGVLASSKHPKEAQEFVKWITGKSGQDILRTNNAFEYAVGVDAASNPKLVPLKDLDAPKVEPSKLNSKKVVELMTEAGLL | soluble
ESRSQISRRNQDMLLSVLDLEKVSVNDIMVPRNEIVGIDINDDWKSIVRQLTHSPHGRIVLYRDSLDDAISMLRVREAYRLMTEKKEFTKEIMLRAADEIYFVPEGTPLSTQLVKFQRNKKKVGLVVDEYGDIQGLVTVEDILEEIVGDFTTSMSPTLAEEVTPLNDGTVIIDGSANVREINKAFNWHLPEDEARTVNGII | soluble
ESVLTQPPSVSGAPGQRVTISCTGSSSNIGAGYDVHWYQQLPGTAPKLLISGNSNRPSGVPDRFSGSKSGTSASLAITGLQAEDEADYYCQSYDSSLSGSVFGGGTKLTVLGQPKAAPSVTLFPPSSEELQANKATLVCLISDFYPGAVTVAWKADSSPVKAGVETTTPSKQSNNKYAASSYLSLTPEQWKSHRSYSCQVTHEGSTVEKTVAPTECS | soluble
ESYWRSRMIDAVTSDEDKVAPVYKLEEICDLLRSSHVSIVKEFSEFILKRLDNKSPIVKQKALRLIKYAVGKSGSEFRREMQRNSVAVRNLFHYKGHPDPLKGDALNKAVRETAHETISAIFSEENG | soluble
EVKDYMSQPVVLRENTTVYDAICTIFLEDVSTLFIINEDNDFVGVCSRKDLLRASMIGADIHTVPISVNMTRMPNVTYLEESELVIYAADRMIEKEIDSIPIVRKKDNQKYEVIGRISKTTIAKLLVALYKE | not soluble
EVKLVESGGGLVKPGGSLKLSCAASGFTFSRYALSWVRQTADKRLEWVASIVSGGNTYYSGSVKGRFTISRDIARNILYLQMSSLRSEDTAMYYCARAYYGYVGLVHWGQGTLVTVSSAKTTPPSVYPLAPGSAAQTNSMVTLGCLVKGYFPEPVTVTWNSGSLSSGVHTFPAVLQSDLYTLSSSVTVPSSTWPSETVTCNVAHPASSTKVDKKIVPRDCG | soluble
EVKLVESGGGLVLPGGSLRLSCATSGFTFTDYYMTWVRQPPGKALEWLGFIGNKANDYTTEYSASVKGRFTISRDDSQSILYLQMSTLRAEDRATYYCATVYGNYPYFDVWGAGTTVAVSSAKTTPPSVYPLAPVCGGTTGSSVTLGCLVKGYFPEPVTLTWNSGSLSSGVHTFPAVLQSGLYTLSSSVTVTSSTWPSQSITCNVAHPASSTKVDKKIEPR | soluble
EVMLVESGGGLVKPGGSLKLSCAASGFTFSSYTMSWVRQTPEKRLEWVATISSGGGNTYYPDSVKGRFTISRDIAKNTLYLQMSSLRSEDTALYYCTRLGDYGYAYTMDYWGQGTSVTVSSAKTTPPSVYPLAPGGGGGGGAMVTLGCLVKGYFPEPVTVTWNSGSLSSGVHTFPAVLQSDLYTLSSSVTVPSSPWPSETVTCNVAHPASSTKVDKKIVPRDC | soluble
EWALFLDIDGTLVDIAEQPHDVRVAASLPQDLARLADRLGGALALVTGRRVDWIDAHFGPHLFPAAGLHGVERRRASGELDRAGLAPSLNALRKDLGRRTARMPGVLLEDKVAAVALHYRQAPEREPDVRAMMEMALKVMGDGWVLQHGKMVVELRPASANKGTALEAFLTEPPFAGRRPVAIGDDVTDEEMFRVVNACGGLSVRICETEAPTLARARLASPQALRDLVAELGA | not soluble
FAKLVRPPVQIYGIEGRYATALYSAASKQNKLEQVEKELLRVGQILKEPKMAASLLNPYVKRSVKVKSLSDMTAKEKFSPLTSNLINLLAENGRLTNTPAVISAFSTMMSVHRGEVPCTVTTASALDETTLTELKTVLKSFLSKGQVLKLEVKIDPSIMGGMIVRIGEKYVDMSAKTKIQKLSRAMREIL | soluble
